# Results: patent US20210101947A1 (UNIVERSITY OF SASKATCHEWAN, published 2021)
# Primed or numbered codes have the meaning given here. No end group written: not given here. FITC′ = not defined here
# T1: TAT2 cell penetrating peptide
# T1 construct: Synthesized; two copies of a 9 amino acid TAT peptide
# T1 peptide: RKKRRQRRRRKKRRQRRR
# Molecular target: T1, TAT2 cell penetrating peptide
# Experiment: peptides mixed; uptake into MDA-MB-231 cells seen by fluorescence microscopy
# Experimental: B. Using 0.1 mg/ml C43-4-FITC, weak toxicity is only observed when combined with TAT2, which is worsened with DOX. An equal number of cells were treated with TAT2 and C43-4-FITC alone or in complex, +/−0.5 uM DOX. 24 hours later, 4 random fields of cells were counted and combined. C. MDA-MB-231 cells were treated with 0.001 mg/ml peptide/TAT2 complex for 12 hours, or left untreated. Lysates were prepared and assessed with the antibodies shown. Cyclin B—APC substrate; the PARP […] cleavage fragment is an early sign of apoptosis; induction of total PARP indicates DNA damage; TFPI1 is a nucleolar MDR marker. D. Mice growing MDA-MB-231 cells stably expressing pcDNA-C43-4, injected or left untreated, with the C43-4-FITC/TAT2 complex (n=2 each). 100 ul of 0.01 mg/ml C43-4-FITC peptide was mixed with 25 ul of 1 mg/ml TAT2. The entire 125 ul was given to the mouse using an intraperitoneal (IP) injection. 1 injection/mouse was given in this experiment.
# The 20 amino acid C43-4 peptide was synthesized with a C-terminal FITC epitope to allow visualization of the peptide within the cell using fluorescent microscopy. The TAT2 cell penetrating peptide, encoding 2 copies of a 9 amino acid peptide ([…]; SEQ ID NO: 26) was also synthesized. […] After 24 hours, and prior to imaging, 4 independent microscope fields were counted for each sample and added together to get a total cell number. […]
binder,measurement,value
NGSSHNDLRVRRLTLISRLC-{FITC′} (The synthesized 20 amino acid C43-4 peptide with a C-terminal FITC; also called C43-4-FITC peptide) [C43-4-FITC],binding result,binds
